± gives the standard deviation of the averaged measurements.
What follows are sequences tested on Saccharomyces cerevisiae (assay: protein stability index of tFT-peptide fusion (C-terminal peptide) (PSI (0-1 scale)); higher = more stable (slower turnover)). Conditions: genetic background: das1 deletion; temperature: 30 C.
Description: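 MPS profiling in S. cerevisiae of the yeast C-terminome library: the last 12 aa of each annotated ORF are fused to the C-terminus of a sfGFP-mCherry timer, after a GGGS linker. Cells are FACS-sorted into 8 mCherry/sfGFP bins and deep-sequenced. PSI runs from 0 (unstable) to 1 (stable); wild type and das1Δ backgrounds, two technical replicates each.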

Sequence | protein stability index
SLLVEDGGNPTA [YPL150W C-terminal 12 aa] | 0.695 ± 0.007
SLMIFSSFFLYN [YOR139C C-terminal 12 aa] | 0.6872 ± 0.001
SLRGCKSVFRRI [HMI1 C-terminal 12 aa] | 0.663 ± 0.0076
SLSTFPFVYKYL [EST3 C-terminal 12 aa] | 0.749 ± 0.019
SNEHSSENTAGP [STE3 C-terminal 12 aa] | 0.696 ± 0.013
SNLALAGGAFRP [TAF5 C-terminal 12 aa] | 0.711 ± 0.0013
SPEIDDSSLACH [CTR2 C-terminal 12 aa] | 0.707 ± 0.0085
SQMRPPSQGDKI [DAL82 C-terminal 12 aa] | 0.714 ± 0.024
SQMTKKRKTKKE [APN1 C-terminal 12 aa] | 0.72 ± 0.015
SQNGHTSGSENI [LSP1 C-terminal 12 aa] | 0.6941 ± 0.005
SQSFNPLESVQE [YPL229W C-terminal 12 aa] | 0.7038 ± 0.0039
SRIKNACLHRMN [RRN7 C-terminal 12 aa] | 0.6966 ± 0.0047
SRVYAYYLTHEK [NNT1 C-terminal 12 aa] | 0.666 ± 0.007
SSFEKFQYYSKA [AGP2 C-terminal 12 aa] | 0.72 ± 0.024
SSLMVIHPLDDT [MID1 C-terminal 12 aa] | 0.6918 ± 0.0012
SSSYNYNVHKLA [YDR278C C-terminal 12 aa] | 0.6925 ± 0.0039
STDEKRLVMSLK [IMH1 C-terminal 12 aa] | 0.692 ± 0.042
STDEKTSENETL [YPR071W C-terminal 12 aa] | 0.6746 ± 0.0056
STICRDIILIPN [CHK1 C-terminal 12 aa] | 0.688 ± 0.03
STKFEEDQVAPL [ICP55 C-terminal 12 aa] | 0.679 ± 0.007
STSDSENFMQQH [RPI1 C-terminal 12 aa] | 0.705 ± 0.013

Sequence | protein stability index
SVFIASLLLAII [FLO1 C-terminal 12 aa] | 0.31 ± 0.0059
SVLTGGAVWMLF [DFG5 C-terminal 12 aa] | 0.7186 ± 0.0037
TAIAHRAYIQLK [RSM7 C-terminal 12 aa] | 0.709 ± 0.035
TALLIDNILTCK [MRM1 C-terminal 12 aa] | 0.7 ± 0.021
TALLVSYCHLCV [YMR122C C-terminal 12 aa] | 0.625 ± 0.0077
TAREKKNEMFSF [YCL023C C-terminal 12 aa] | 0.69596 ± 0.00065
TASTSNSRNQTM [SPO71 C-terminal 12 aa] | 0.701 ± 0.03
TASYLKDAVYLH [ATP6 C-terminal 12 aa] | 0.699 ± 0.031
TCVYKKPERHKA [TCM62 C-terminal 12 aa] | 0.707 ± 0.03
TDNTVDKFDFYK [RPT3 C-terminal 12 aa] | 0.711 ± 0.016
TDVVLCARLADD [RIB7 C-terminal 12 aa] | 0.676 ± 0.014
TEFGITKENLGE [TOG1 C-terminal 12 aa] | 0.697 ± 0.03
TEIPYKPFTRQP [YOR293C-A C-terminal 12 aa] | 0.724 ± 0.0085
TFHTVGDRYEMA [YPR127W C-terminal 12 aa] | 0.7019 ± 0.006
TGKVFTRTNQSK [YFL019C C-terminal 12 aa] | 0.71 ± 0.035
THNEGSSVKKMH [SLC1 C-terminal 12 aa] | 0.694 ± 0.045
THPAGTLENATQ [YIL102C C-terminal 12 aa] | 0.694 ± 0.022
TISNPFGDHNKI [LSB5 C-terminal 12 aa] | 0.727 ± 0.034
TKAVHINLSLDN [ALD2 C-terminal 12 aa] | 0.69 ± 0.0043
TKEYMDSIRSAK [VPS45 C-terminal 12 aa] | 0.687 ± 0.023
TKKSTGKGPASS [BOL3 C-terminal 12 aa] | 0.7 ± 0.033

Sequence | protein stability index
TLFCLLFRFIIF [YIP5 C-terminal 12 aa] | 0.265 ± 0.0053
TLGEVINELNNK [VAM6 C-terminal 12 aa] | 0.7226 ± 0.0022
TLHLVLRLRGGN [UBI4 C-terminal 12 aa] | 0.665 ± 0.013
TLSYIRVHKLVK [TYC1 C-terminal 12 aa] | 0.647 ± 0.019
TMVERRVSFTAQ [YER119C-A C-terminal 12 aa] | 0.73 ± 0.031
TNIIRETLKSLN [ATP22 C-terminal 12 aa] | 0.786 ± 0.1
TNNRHKYQNGRK [YLL032C C-terminal 12 aa] | 0.7 ± 0.053
TNPHQADASPKK [MPE1 C-terminal 12 aa] | 0.71 ± 0.023
TQKLNEKSSKES [ATC1 C-terminal 12 aa] | 0.715 ± 0.031
TSASSNFDDSFS [YCR018C-A C-terminal 12 aa] | 0.6885 ± 0.0016
TSGRYASYRICM [RPB5 C-terminal 12 aa] | 0.6941 ± 0.0011
TSIESALITLDL [MER1 C-terminal 12 aa] | 0.682 ± 0.016
TSPRAINPKRSA [YDL114W C-terminal 12 aa] | 0.695 ± 0.021
TSSFTEAVIKRL [IDH2 C-terminal 12 aa] | 0.696 ± 0.011
TSSNPKSHQYSK [ROF1 C-terminal 12 aa] | 0.717 ± 0.0022
TSTNTIYATVTI [DSE2 C-terminal 12 aa] | 0.688 ± 0.018
TTRETPLPPIPA [TYW1 C-terminal 12 aa] | 0.609 ± 0.012
TTTEVETETAKQ [YPR063C C-terminal 12 aa] | 0.679 ± 0.011
TTWKTTCKIFGE [YBL055C C-terminal 12 aa] | 0.693 ± 0.019

Same assay, conditions: genetic background: wild type; temperature: 30 C

Sequence | protein stability index
SLLVEDGGNPTA [YPL150W C-terminal 12 aa] | 0.69 ± 0.026
SLMIFSSFFLYN [YOR139C C-terminal 12 aa] | 0.479 ± 0.02
SLRGCKSVFRRI [HMI1 C-terminal 12 aa] | 0.741 ± 0.029
SLSTFPFVYKYL [EST3 C-terminal 12 aa] | 0.127 ± 0.0095
SNEHSSENTAGP [STE3 C-terminal 12 aa] | 0.684 ± 0.014
SNLALAGGAFRP [TAF5 C-terminal 12 aa] | 0.688 ± 0.016
SPEIDDSSLACH [CTR2 C-terminal 12 aa] | 0.6821 ± 0.0044
SQMRPPSQGDKI [DAL82 C-terminal 12 aa] | 0.675 ± 0.023
SQMTKKRKTKKE [APN1 C-terminal 12 aa] | 0.786 ± 0.064
SQNGHTSGSENI [LSP1 C-terminal 12 aa] | 0.699 ± 0.03
SQSFNPLESVQE [YPL229W C-terminal 12 aa] | 0.709 ± 0.1
SRIKNACLHRMN [RRN7 C-terminal 12 aa] | 0.681 ± 0.035
SRVYAYYLTHEK [NNT1 C-terminal 12 aa] | 0.67 ± 0.018
SSFEKFQYYSKA [AGP2 C-terminal 12 aa] | 0.688 ± 0.049
SSLMVIHPLDDT [MID1 C-terminal 12 aa] | 0.695 ± 0.006
SSSYNYNVHKLA [YDR278C C-terminal 12 aa] | 0.134 ± 0.013
STDEKRLVMSLK [IMH1 C-terminal 12 aa] | 0.709 ± 0.014
STDEKTSENETL [YPR071W C-terminal 12 aa] | 0.656 ± 0.024
STICRDIILIPN [CHK1 C-terminal 12 aa] | 0.6527 ± 0.0013
STKFEEDQVAPL [ICP55 C-terminal 12 aa] | 0.686 ± 0.029

Sequence | protein stability index
STSDSENFMQQH [RPI1 C-terminal 12 aa] | 0.729 ± 0.049
SVFIASLLLAII [FLO1 C-terminal 12 aa] | 0.323 ± 0.021
SVLTGGAVWMLF [DFG5 C-terminal 12 aa] | 0.652 ± 0.013
TAIAHRAYIQLK [RSM7 C-terminal 12 aa] | 0.685 ± 0.033
TALLIDNILTCK [MRM1 C-terminal 12 aa] | 0.694 ± 0.048
TALLVSYCHLCV [YMR122C C-terminal 12 aa] | 0.6243 ± 0.0048
TAREKKNEMFSF [YCL023C C-terminal 12 aa] | 0.711 ± 0.06
TASTSNSRNQTM [SPO71 C-terminal 12 aa] | 0.687 ± 0.038
TASYLKDAVYLH [ATP6 C-terminal 12 aa] | 0.703 ± 0.025
TCVYKKPERHKA [TCM62 C-terminal 12 aa] | 0.701 ± 0.024
TDNTVDKFDFYK [RPT3 C-terminal 12 aa] | 0.71 ± 0.013
TDVVLCARLADD [RIB7 C-terminal 12 aa] | 0.7 ± 0.038
TEFGITKENLGE [TOG1 C-terminal 12 aa] | 0.691 ± 0.032
TEIPYKPFTRQP [YOR293C-A C-terminal 12 aa] | 0.739 ± 0.013
TFHTVGDRYEMA [YPR127W C-terminal 12 aa] | 0.69654 ± 0.00054
TGKVFTRTNQSK [YFL019C C-terminal 12 aa] | 0.698 ± 0.011
THNEGSSVKKMH [SLC1 C-terminal 12 aa] | 0.674 ± 0.037
THPAGTLENATQ [YIL102C C-terminal 12 aa] | 0.742 ± 0.017
TISNPFGDHNKI [LSB5 C-terminal 12 aa] | 0.738 ± 0.099
TKAVHINLSLDN [ALD2 C-terminal 12 aa] | 0.702 ± 0.015

Sequence | protein stability index
TKEYMDSIRSAK [VPS45 C-terminal 12 aa] | 0.766 ± 0.099
TKKSTGKGPASS [BOL3 C-terminal 12 aa] | 0.675 ± 0.03
TLFCLLFRFIIF [YIP5 C-terminal 12 aa] | 0.2739 ± 0.001
TLGEVINELNNK [VAM6 C-terminal 12 aa] | 0.676 ± 0.011
TLHLVLRLRGGN [UBI4 C-terminal 12 aa] | 0.687 ± 0.067
TLSYIRVHKLVK [TYC1 C-terminal 12 aa] | 0.493 ± 0.015
TMVERRVSFTAQ [YER119C-A C-terminal 12 aa] | 0.711 ± 0.022
TNNRHKYQNGRK [YLL032C C-terminal 12 aa] | 0.664 ± 0.0094
TNPHQADASPKK [MPE1 C-terminal 12 aa] | 0.702 ± 0.021
TQKLNEKSSKES [ATC1 C-terminal 12 aa] | 0.644 ± 0.036
TSASSNFDDSFS [YCR018C-A C-terminal 12 aa] | 0.717 ± 0.062
TSGRYASYRICM [RPB5 C-terminal 12 aa] | 0.664 ± 0.011
TSIESALITLDL [MER1 C-terminal 12 aa] | 0.695 ± 0.032
TSPRAINPKRSA [YDL114W C-terminal 12 aa] | 0.703 ± 0.02
TSSFTEAVIKRL [IDH2 C-terminal 12 aa] | 0.6628 ± 0.0025
TSSNPKSHQYSK [ROF1 C-terminal 12 aa] | 0.689 ± 0.029
TSTNTIYATVTI [DSE2 C-terminal 12 aa] | 0.6656 ± 0.001
TTRETPLPPIPA [TYW1 C-terminal 12 aa] | 0.642 ± 0.015
TTTEVETETAKQ [YPR063C C-terminal 12 aa] | 0.7 ± 0.027
TTWKTTCKIFGE [YBL055C C-terminal 12 aa] | 0.712 ± 0.008
